Literature values, collected in patent US7101894B2 (priority 2001, dated 2006).

Molecular target: CMV US28 (Human cytomegalovirus, UniProt P69332)
Settings: binding of Fractalkine to US28

Sequence of CMV US28 (P69332 whole entry): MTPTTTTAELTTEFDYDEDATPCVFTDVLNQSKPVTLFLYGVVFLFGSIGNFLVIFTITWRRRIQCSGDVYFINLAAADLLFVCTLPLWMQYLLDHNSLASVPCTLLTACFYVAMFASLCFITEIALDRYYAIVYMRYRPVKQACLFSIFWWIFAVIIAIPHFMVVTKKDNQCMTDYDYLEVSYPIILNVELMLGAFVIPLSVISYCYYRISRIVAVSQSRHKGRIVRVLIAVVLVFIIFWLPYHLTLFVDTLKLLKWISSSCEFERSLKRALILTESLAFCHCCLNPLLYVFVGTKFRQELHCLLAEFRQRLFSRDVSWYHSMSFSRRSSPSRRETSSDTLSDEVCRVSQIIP

B1: Fractalkine: the CX3C chemokine, binds US28; used 125I-labeled as radioligand (protein, UniProt P78423 25-397, looked up)
Fractalkine: QHHGVTKCNITCSKMTSKIPVALLIHYQQNQASCGKRAIILETRQHRLFCADPKEQWVKDAMQHLDRQAAALTRNGGTFEKQIGEVKPRTTPAAGGMDESVVLEPEATGESSSLEPTPSSQEAQRALGTSPELPTGVTGSSGTRLPPTPKAQDGGPVGTELFRVPPVSTAATWQSSAPHQPGPSLWAEAKTSEAPSTQDPSTQASTASSPAPEENAPSEGQRVWGQGQSPRPENSLEREEMGPVPAHTDAFQDWGPGSMAHVSVVPVSSEGTPSREPVASGSWTPKAEEPIHATMDPQRLGVLITPVPDAQAATRRQAVGLLAFLGLLFCLGVAMFTYQSLQGCPRKMAGEMAEGLRYIPRSCGSNSYVLVPV
modifications: 125I label
notes: used 125I-labeled as radioligand
In the case of B1, the Ki is given as about 0.05 nM.
